A short description of series [1]: cell lysate anti-myc blot. The settings on record: glycan lost; control: wild type.
Series [2] can be described thus: in-gel HA digestion, alcian blue staining. To be noted: glycan lost; control: wild type.

B1: hyaluronidase1 (HYAL1): N99Q (protein)
parent chain: MAAHLLPICALFLTLLDMAQGFRGPLLPNRPFTTVWNANTQWCLERHGVDVDVSVFDVVANPGQTFRGPDMTIFYSSQLGTYPYYTPTGEPVFGGLPQNASLIAHLARTFQDILAAIPAPDFSGLAVIDWEAWRPRWAFNWDTKDIYRQRSRALVQAQHPDWPAPQVEAVAQDQFQGAARAWMAGTLQLGRALRPRGLWGFYGFPDCYNYDFLSPNYTGQCPSGIRAQNDQLGWLWGQSRALYPSIYMPAVLEGTGKSQMYVQHRVAEAFRVAVAAGDPNLPVLPYVQIFYDTTNHFLPLDELEHSLGESAAQGAAGVVLWVSWENTRTKESCQAIKEYMDTTLGPFILNVTSGALLCSQALCSGHGRCVRRTSHPKALLLLNPASFSIQLTPGGGPLSLRGALSLEDQAQMAVEFKCRCYPGWQAPWCERKSMW
B1: the expression_or_secretion entry in series [1] was “decreases”.

B2: hyaluronidase1 (HYAL1): N216Q (protein)
parent chain: MAAHLLPICALFLTLLDMAQGFRGPLLPNRPFTTVWNANTQWCLERHGVDVDVSVFDVVANPGQTFRGPDMTIFYSSQLGTYPYYTPTGEPVFGGLPQNASLIAHLARTFQDILAAIPAPDFSGLAVIDWEAWRPRWAFNWDTKDIYRQRSRALVQAQHPDWPAPQVEAVAQDQFQGAARAWMAGTLQLGRALRPRGLWGFYGFPDCYNYDFLSPNYTGQCPSGIRAQNDQLGWLWGQSRALYPSIYMPAVLEGTGKSQMYVQHRVAEAFRVAVAAGDPNLPVLPYVQIFYDTTNHFLPLDELEHSLGESAAQGAAGVVLWVSWENTRTKESCQAIKEYMDTTLGPFILNVTSGALLCSQALCSGHGRCVRRTSHPKALLLLNPASFSIQLTPGGGPLSLRGALSLEDQAQMAVEFKCRCYPGWQAPWCERKSMW
Take B2: the enzymatic_activity result in series [2] is “decreases”. The expression_or_secretion result in series [1] is “decreases”.

B3: hyaluronidase1 (HYAL1): N350Q (protein)
parent chain: MAAHLLPICALFLTLLDMAQGFRGPLLPNRPFTTVWNANTQWCLERHGVDVDVSVFDVVANPGQTFRGPDMTIFYSSQLGTYPYYTPTGEPVFGGLPQNASLIAHLARTFQDILAAIPAPDFSGLAVIDWEAWRPRWAFNWDTKDIYRQRSRALVQAQHPDWPAPQVEAVAQDQFQGAARAWMAGTLQLGRALRPRGLWGFYGFPDCYNYDFLSPNYTGQCPSGIRAQNDQLGWLWGQSRALYPSIYMPAVLEGTGKSQMYVQHRVAEAFRVAVAAGDPNLPVLPYVQIFYDTTNHFLPLDELEHSLGESAAQGAAGVVLWVSWENTRTKESCQAIKEYMDTTLGPFILNVTSGALLCSQALCSGHGRCVRRTSHPKALLLLNPASFSIQLTPGGGPLSLRGALSLEDQAQMAVEFKCRCYPGWQAPWCERKSMW
As for B3, in series [2], the enzymatic_activity entry was “decreases”. Further, the expression_or_secretion result in series [1] is listed as “decreases”.

Source of the values: paper PMC4087149.
